Tests used:
Grb2 SH2 = Grb2 SH2 (UniProt P62993); assay: SH2 binding enrichment of the phosphorylated peptide, bacterial display (enrichment ratio); higher = better substrate or ligand; peptides without Tyr show the background
SHP2-C SH2 = assay: as above
c-Src SH2 = assay: as above
Fes = Fes (UniProt P07332); assay: phosphorylation enrichment, bacterial display (enrichment ratio); higher = better substrate or ligand; peptides without Tyr show the background
c-Abl (mouse) = assay: as above
AncSZ = assay: as above
c-Src = assay: as above
MERTK = MERTK (UniProt Q12866); assay: as above
MERTK, sequence (Q12866 whole entry, looked up): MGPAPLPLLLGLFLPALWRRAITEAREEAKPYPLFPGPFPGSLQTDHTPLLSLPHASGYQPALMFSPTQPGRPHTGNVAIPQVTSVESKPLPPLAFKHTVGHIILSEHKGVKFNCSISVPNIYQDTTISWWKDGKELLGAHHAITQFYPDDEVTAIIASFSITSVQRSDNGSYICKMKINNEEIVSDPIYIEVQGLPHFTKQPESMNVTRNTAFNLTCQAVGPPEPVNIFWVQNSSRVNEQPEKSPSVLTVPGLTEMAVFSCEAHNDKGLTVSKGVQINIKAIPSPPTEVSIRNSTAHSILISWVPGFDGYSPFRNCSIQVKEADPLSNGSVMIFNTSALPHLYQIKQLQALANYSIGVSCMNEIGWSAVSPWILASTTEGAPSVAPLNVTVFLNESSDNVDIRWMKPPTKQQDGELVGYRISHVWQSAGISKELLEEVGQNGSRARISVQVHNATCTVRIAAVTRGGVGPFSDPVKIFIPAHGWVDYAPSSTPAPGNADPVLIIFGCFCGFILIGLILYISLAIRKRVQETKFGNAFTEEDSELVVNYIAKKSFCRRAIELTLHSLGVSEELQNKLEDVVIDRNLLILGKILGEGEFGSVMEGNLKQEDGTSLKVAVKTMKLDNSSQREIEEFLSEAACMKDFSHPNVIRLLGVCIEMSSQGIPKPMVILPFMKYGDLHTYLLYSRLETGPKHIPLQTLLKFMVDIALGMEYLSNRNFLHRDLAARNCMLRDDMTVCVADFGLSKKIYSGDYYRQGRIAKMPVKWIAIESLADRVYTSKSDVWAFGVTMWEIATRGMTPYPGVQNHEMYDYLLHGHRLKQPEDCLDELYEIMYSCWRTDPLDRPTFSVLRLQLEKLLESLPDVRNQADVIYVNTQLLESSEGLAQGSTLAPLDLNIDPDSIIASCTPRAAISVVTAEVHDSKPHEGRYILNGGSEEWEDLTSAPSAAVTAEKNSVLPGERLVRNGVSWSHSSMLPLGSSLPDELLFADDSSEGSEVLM

Hck = Hck (UniProt P08631); assay: as above
EPHB1 = EPHB1 (UniProt P54762); assay: as above
EPHB1, sequence (P54762 whole entry, looked up): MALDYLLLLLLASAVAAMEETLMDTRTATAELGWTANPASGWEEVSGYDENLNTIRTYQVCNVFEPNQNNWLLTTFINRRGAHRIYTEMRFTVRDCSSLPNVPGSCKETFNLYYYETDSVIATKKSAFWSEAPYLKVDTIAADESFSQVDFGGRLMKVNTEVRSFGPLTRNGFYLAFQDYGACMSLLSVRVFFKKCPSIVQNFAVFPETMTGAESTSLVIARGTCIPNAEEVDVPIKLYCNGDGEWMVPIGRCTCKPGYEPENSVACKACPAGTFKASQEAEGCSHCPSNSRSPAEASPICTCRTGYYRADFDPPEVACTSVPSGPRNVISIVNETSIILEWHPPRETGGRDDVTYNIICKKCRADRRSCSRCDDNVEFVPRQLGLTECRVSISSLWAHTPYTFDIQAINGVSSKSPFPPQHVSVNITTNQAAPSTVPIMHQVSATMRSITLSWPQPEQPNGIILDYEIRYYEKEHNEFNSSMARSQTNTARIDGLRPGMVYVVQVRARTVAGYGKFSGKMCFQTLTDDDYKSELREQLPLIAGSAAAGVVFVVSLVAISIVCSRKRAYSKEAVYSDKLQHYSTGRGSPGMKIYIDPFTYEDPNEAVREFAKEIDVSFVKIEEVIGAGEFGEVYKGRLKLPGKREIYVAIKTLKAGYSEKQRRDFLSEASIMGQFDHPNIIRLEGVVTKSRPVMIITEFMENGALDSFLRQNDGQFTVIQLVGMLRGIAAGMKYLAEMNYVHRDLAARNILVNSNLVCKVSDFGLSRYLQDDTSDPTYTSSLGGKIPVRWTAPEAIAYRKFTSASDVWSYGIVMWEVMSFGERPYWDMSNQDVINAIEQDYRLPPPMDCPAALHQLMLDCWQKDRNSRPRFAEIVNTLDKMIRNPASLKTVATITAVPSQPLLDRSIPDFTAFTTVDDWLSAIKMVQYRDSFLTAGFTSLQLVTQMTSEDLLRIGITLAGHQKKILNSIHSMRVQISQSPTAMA

Fyn = Fyn (UniProt P06241); assay: as above
Fer (mouse) = assay: as above
Jak2 = Jak2 (UniProt O60674); assay: as above
FGFR3 = FGFR3 (UniProt P22607); assay: as above
FGFR1 = FGFR1 (UniProt P11362); assay: as above
FGFR1, sequence (P11362 whole entry, looked up): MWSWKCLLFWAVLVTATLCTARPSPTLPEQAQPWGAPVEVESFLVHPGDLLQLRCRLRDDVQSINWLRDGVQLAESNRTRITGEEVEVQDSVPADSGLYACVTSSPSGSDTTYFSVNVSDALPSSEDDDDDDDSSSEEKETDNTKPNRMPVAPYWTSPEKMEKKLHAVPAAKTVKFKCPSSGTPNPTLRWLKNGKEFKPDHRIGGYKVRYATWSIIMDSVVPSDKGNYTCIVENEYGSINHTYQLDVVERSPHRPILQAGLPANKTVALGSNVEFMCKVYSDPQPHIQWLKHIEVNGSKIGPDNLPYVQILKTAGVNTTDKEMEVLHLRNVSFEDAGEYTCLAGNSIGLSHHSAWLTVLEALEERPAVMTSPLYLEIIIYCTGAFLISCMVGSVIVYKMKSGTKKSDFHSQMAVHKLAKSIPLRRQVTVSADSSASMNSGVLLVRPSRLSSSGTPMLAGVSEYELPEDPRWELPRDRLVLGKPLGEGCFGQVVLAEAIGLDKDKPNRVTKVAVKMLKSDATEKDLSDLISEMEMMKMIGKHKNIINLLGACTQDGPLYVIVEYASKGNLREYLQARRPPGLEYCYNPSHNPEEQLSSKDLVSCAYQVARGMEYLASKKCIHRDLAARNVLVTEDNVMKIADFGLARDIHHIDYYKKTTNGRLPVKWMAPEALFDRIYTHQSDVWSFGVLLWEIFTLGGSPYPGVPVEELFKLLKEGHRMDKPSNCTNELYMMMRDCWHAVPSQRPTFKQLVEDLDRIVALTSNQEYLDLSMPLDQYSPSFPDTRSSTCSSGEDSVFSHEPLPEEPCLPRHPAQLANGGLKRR

EPHB2 = EPHB2 (UniProt P29323); assay: as above
EPHB2, sequence (P29323 whole entry, looked up, the tested form may be a part): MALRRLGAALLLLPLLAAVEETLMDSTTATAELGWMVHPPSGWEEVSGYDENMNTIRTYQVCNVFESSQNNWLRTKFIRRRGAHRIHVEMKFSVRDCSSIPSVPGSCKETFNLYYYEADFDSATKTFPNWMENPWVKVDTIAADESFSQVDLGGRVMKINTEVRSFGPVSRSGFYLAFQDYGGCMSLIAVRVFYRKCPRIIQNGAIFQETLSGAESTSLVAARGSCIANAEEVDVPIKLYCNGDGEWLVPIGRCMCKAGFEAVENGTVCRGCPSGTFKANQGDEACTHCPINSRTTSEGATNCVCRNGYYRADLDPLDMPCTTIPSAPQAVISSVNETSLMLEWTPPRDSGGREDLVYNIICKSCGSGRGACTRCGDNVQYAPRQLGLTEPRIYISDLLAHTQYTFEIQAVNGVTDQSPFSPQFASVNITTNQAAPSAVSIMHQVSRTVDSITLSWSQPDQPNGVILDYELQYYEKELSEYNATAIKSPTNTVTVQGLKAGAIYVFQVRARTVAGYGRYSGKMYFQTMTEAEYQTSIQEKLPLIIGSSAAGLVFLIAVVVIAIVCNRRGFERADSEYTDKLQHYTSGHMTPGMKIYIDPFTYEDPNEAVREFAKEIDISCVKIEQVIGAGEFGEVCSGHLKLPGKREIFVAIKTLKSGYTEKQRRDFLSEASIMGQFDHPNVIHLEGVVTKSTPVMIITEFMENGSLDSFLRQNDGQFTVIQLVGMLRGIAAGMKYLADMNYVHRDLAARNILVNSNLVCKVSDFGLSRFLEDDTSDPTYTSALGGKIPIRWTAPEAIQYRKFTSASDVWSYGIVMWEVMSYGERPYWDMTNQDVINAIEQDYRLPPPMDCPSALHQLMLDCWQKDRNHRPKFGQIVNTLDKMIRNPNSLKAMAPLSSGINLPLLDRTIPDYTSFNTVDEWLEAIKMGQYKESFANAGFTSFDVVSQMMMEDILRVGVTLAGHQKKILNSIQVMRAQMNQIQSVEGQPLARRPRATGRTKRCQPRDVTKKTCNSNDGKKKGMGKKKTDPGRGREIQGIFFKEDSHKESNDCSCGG
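Throughout, for SH2 binding enrichment of the phosphorylated peptide, bacterial display: peptide library displayed on the E. coli surface as eCPX fusions, selected cells deep-sequenced, score is each peptide's frequency after selection divided by its frequency in the input.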
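Throughout, for phosphorylation enrichment, bacterial display: 11-residue human phosphosite peptides and single-mutation variants displayed on the E. coli surface, counted by deep sequencing, each peptide's frequency after selection divided by its frequency in the unselected input library; frequency after pTyr selection over input frequency; kinase dosed for 20-30% of maximal phosphorylation in three min.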

Grb2 SH2, sequence (P62993 whole entry, looked up): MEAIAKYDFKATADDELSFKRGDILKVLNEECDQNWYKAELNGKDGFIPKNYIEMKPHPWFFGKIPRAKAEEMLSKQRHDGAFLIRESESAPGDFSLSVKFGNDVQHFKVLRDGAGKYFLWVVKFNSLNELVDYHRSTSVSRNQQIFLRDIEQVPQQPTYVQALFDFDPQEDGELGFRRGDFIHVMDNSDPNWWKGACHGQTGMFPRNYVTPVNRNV
Fes, sequence (P07332 whole entry, looked up): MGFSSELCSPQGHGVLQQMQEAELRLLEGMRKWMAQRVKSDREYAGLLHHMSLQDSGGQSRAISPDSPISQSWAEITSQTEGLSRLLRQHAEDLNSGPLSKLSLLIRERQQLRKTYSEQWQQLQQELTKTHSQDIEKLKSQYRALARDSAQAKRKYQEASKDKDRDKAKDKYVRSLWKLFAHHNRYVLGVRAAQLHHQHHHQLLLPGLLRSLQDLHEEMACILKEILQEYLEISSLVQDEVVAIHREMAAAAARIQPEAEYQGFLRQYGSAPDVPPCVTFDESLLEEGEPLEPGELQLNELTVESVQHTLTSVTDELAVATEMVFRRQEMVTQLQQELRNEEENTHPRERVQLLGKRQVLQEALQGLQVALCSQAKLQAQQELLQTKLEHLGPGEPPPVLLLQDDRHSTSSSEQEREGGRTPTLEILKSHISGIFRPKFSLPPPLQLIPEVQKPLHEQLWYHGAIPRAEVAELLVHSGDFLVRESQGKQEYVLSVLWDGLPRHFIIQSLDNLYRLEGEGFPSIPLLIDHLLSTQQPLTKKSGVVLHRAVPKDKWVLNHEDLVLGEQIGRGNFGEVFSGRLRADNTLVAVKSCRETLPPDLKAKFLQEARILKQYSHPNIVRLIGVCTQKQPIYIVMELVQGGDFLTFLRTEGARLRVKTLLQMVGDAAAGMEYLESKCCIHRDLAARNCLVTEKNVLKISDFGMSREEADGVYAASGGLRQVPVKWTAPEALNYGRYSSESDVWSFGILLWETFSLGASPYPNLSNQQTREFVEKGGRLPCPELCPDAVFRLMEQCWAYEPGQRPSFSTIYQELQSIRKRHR

Sequence	SH2 binding enrichment (Grb2 SH2)	SH2 binding enrichment (SHP2-C SH2)	SH2 binding enrichment (c-Src SH2)	phosphorylation enrichment (Fes)	phosphorylation enrichment (c-Abl (mouse))	phosphorylation enrichment (AncSZ)	phosphorylation enrichment (c-Src)	phosphorylation enrichment (MERTK)	phosphorylation enrichment (Hck)	phosphorylation enrichment (EPHB1)	phosphorylation enrichment (Fyn)	phosphorylation enrichment (Fer (mouse))	phosphorylation enrichment (Jak2)	phosphorylation enrichment (FGFR3)	phosphorylation enrichment (FGFR1)	phosphorylation enrichment (EPHB2)
MPIPMYDGSQA [CARMIL1_Y637_A639G]	0.746	0.53	0.452	0.777	0.639	0.623	0.44	0.447	0.53	1.1	0.52	0.402	0.963	0.532	0.434	0.634
GRLGEYDIDEV [SMS_Y134_V132G]	0.649	0.484	0.555	1.45	0.881	1.3	0.643	0.494	0.647	0.909	0.789	0.688	1.27	1	0.551	0.859
VILARYGPAWR [CYP2D6_Y124_F120I]	0.828	0.547	0.385	1.09	0.603	1.09	0.503	0.482	0.602	0.513	0.527	0.407	0.808	0.608	0.608	0.614
AKFPFYEKNKK [FOXL2_Y91]	1.31	1.38	0.981	0.806	0.545	0.589	0.415	0.436	0.443	0.407	0.405	0.304	0.655	0.533	0.441	0.467
PMQLPYDSRWE [PDGFRA_Y582]	1.14	0.6	0.605	0.854	0.577	1.05	0.893	0.353	0.706	0.472	0.665	0.485	0.821	0.712	0.523	0.623
LVMFISAIFGM [SCN1A_Y1684_Y1684S]	1.39	0.842	0.893	2.05	1.36	1.69	0.922	0.722	0.804	1.1	0.788	1.33	1.77	1.46	1.15	1.07
DNEYAYLKAII [HNF4A_Y288]	0.732	0.513	0.391	1.01	2.79	1.27	0.599	0.603	1.58	1.68	0.615	0.667	0.856	2.4	3.79	0.97
FVSSFYHAFSG [ACTN4_Y265_YF]	1.33	1.07	0.95	1.3	2.01	0.999	4.01	8.71	2.6	1.51	2.32	0.522	1.19	1.34	1.2	0.896
HSGVSYYINLC [IGF2R_Y2024_N2020S]	0.722	0.566	0.533	1.93	1.21	1.59	0.488	0.563	0.729	1.15	0.661	0.951	2.38	1.09	0.849	0.942
WQQQSYLDSEI [CTNNB1_Y30_G34E]	0.992	0.707	0.49	0.854	0.581	0.792	0.421	0.377	0.444	0.512	0.437	0.514	0.96	0.669	0.397	0.557
IGMFSYVMLAS [GGCX_Y301]	0.841	0.604	0.424	1.56	0.997	1.21	0.512	0.477	0.548	0.649	0.444	0.562	1.57	0.851	0.598	0.611
NLFIEYPTGSG [IRF2BPL_Y423_K418N]	0.681	0.551	0.399	1.02	0.95	1.14	0.56	0.519	0.497	0.504	0.568	0.639	0.828	0.7	0.582	0.548
DKMEAYNINET [TEKT4_Y210_D213N]	0.951	0.665	0.444	1.27	0.808	1.09	0.577	0.492	0.535	0.488	0.505	0.489	1.13	0.663	0.481	0.535
NTGVFYDLFGG [PTPN11_Y63_D61V_YF]	0.59	0.766	0.743	1.12	0.797	0.99	4.82	7.01	2.84	0.609	3.21	2.86	0.958	0.638	0.455	0.986
TYEPNYGTVKR [RAPGEF6_Y1447_Q1452R]	0.803	0.785	0.589	0.614	0.656	0.567	3.06	0.868	3.66	1.34	4.41	1.65	0.604	0.43	0.391	3.31
FFHCTYKKRMI [CLEC12A_Y242_YF]	1.28	1.15	0.944	1.06	0.532	0.894	0.39	0.321	0.468	0.444	0.364	0.39	0.816	0.637	0.386	0.612

Reference: the supplement of paper PMC10065799, “High-throughput profiling of sequence recognition by tyrosine kinases and SH2 domains using bacterial peptide display” (eLife, 2023)
